Test results reported in US6060451.

Legend:
[1] = biological target: bovine α-thrombin (bovine) (UniProt P00735); test: inhibition of thrombin-mediated hydrolysis of Tosyl-Gly-Pro-Arg-AMC (fluorogenic amidolytic assay)
[2] = biological target: human α-thrombin (human) (UniProt P00734); test: as above
[3] = biological target: bovine α-thrombin (bovine) (UniProt P00735)
[4] = biological target: human α-thrombin (human) (UniProt P00734)
[5] = biological target: thrombin; test: Ki, antithrombin activity in vitro (amidolytic assay of thrombin activity)

| Substance | Ki [2] | other results |
| --- | --- | --- |
| P51 hirudin^45-55 (from UniProt P01050) (peptide) | 110 nM | Ki [1]: 720 nM |
| P53 [D-Phe^45, Arg^47 ]hirudin^45-65 (peptide) |  | IC50, inhibition of fibrin clot formation [3]: 70 nM; IC50, inhibition of fibrin clot formation [4]: 4 nM |
| P73 [D-Phe^45, Ala^47 ]hirudin^45-65 (from UniProt P01050) (peptide) | 41 nM |  |
| r-Hirudin HV2 (from UniProt P09945) | 0.00038 nM | Ki [5]: 0.4 pM |
| P54 [Thr^45, Arg^47, D-Pro^48 ]hirudin^45-65 (from UniProt P01050) (peptide) | 72 nM |  |
